According to patent US20110301095A1 (SANFORD BURNHAM MEDICAL RESEARCH INSTITUTE CALIFORNIA, published 2011):

B1: HA-FoxA1 (HA-tagged rat FoxA1 in pcDNA3) (other, UniProt P23512 1-466, looked up)
chain: MLGTVKMEGHESNDWNSYYADTQEAYSSVPVSNMNSGLGSMNSMNTYMTMNTMTTSGNMTPASFNMSYANPGLGAGLSPGAVAGMPGGSAGAMNSMTAAGVTAMGAALSPGGMGSMGAQPAASMNGLGPYAAAMNPCMSPMAYAPSNLGRSRAGGGGDAKTFKRSYPHAKPPYSYISLITMAIQQAPSKMLTLSEIYQWIMDLFPYYRQNQQRWQNSIRHSLSFNACFVKVARSPDKPGKGSYWTLHPDSGNMFENGCYLRRQKRFKCEKQPGAGGGSGGGGSKGVPENRKDPSGPVNPSAESPIHRGVHGKASQLEGAPAPGPAASPQTLDHSGATATGGGSELKSPASSSAPPISSGPGGWICTPLSPTWLAPHESQLHLKGAPHYSFNHPFSINNLMSSSEQQHKLDFKAYEQALQYSPYGATLPASLPLGGASVATRSPIEPSALEPAYYQGVYSRPVLNTS
notes: not shown: HA tag

Key:
[1] = target: Flag-HIF-1α (mouse HIF-1α in pCVM-Flag vector, expressed in transfected cells) (mouse) (UniProt Q61221); experiment: cell-based or functional assay
Sequence of Flag-HIF-1α (mouse HIF-1α in pCVM-Flag vector, expressed in transfected cells) (mouse) (Q61221 other isoform, or with tags, fused parts or gaps limits assumed): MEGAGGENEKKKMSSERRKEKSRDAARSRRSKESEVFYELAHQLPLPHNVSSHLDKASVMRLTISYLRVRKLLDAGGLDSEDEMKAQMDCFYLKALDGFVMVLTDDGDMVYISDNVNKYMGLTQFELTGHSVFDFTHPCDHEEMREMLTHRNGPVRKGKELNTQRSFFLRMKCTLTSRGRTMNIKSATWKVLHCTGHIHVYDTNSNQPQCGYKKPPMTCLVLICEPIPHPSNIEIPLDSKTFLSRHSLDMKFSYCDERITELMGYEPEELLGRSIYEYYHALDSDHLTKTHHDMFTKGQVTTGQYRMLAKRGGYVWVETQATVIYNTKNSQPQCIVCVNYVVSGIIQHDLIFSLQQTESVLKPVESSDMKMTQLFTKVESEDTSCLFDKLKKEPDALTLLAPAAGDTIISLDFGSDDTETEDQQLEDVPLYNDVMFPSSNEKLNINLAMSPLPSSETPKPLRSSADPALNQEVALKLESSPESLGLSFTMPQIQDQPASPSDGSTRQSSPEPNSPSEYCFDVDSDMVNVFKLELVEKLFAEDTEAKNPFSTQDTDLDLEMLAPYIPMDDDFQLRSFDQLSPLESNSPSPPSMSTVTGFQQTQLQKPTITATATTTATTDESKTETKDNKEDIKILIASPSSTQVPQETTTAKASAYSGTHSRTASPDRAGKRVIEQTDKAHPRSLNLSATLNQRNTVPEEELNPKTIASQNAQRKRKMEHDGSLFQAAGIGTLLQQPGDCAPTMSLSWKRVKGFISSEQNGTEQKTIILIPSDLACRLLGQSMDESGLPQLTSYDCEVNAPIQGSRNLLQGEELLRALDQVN

[2] = target: T1, Flag-HIF-1α (mouse HIF-1α in pCVM-Flag vector, expressed in transfected cells) (mouse, UniProt Q61221-2 1-822, limits assumed); experiment: co-expression in 293T cells, immunoprecipitation of Flag-HIF-1α with M2 beads, immunoblot
T1 construct: not shown: Flag tag
T1 sequence (Q61221 other isoform, or with tags, fused parts or gaps limits assumed): as above
Protocol: Immunoprecipitation and Western blotting. For immunoprecipitation, cells were harvested in lysis buffer containing 50 mM Tris-HCl pH7.5, 150 mM NaCl, 0.5% NP40, 1 mM EDTA, 1 mM sodium orthovanadate, 1mM PMSF, 10 μg/ml aprotinin, 10 μg/ml leupeptine and 10 μg/ml pepstatin A. To immunoprecipitate Flag-tagged proteins, lysates were incubated with M2 beads (Sigma) overnight, the beads were washed 3 times, and precipitated proteins were eluted with 1 mg/ml of flag peptide. To immunoprecipitate endogenous proteins, cells lysates were incubated with 3 μg of primary antibodies overnight, and followed by incubation with Protein G beads for 1 h. After washing 3 times, the precipitated proteins were eluted with SDS loading buffer. To extract whole cell lysate, cells were harvested using RIPA buffer (50 mM Tris-HCl (pH7.5), 150 mM NaCl, 1% Triton X-100, 0.1% SDS, 0.1% Na-deoxycholate, 1 mM EDTA, 1 mM sodium orthovanadate, 1 mM PMSF, 10 μg/ml aprotinin, and 10 μg/ml leupeptine). Cell lysates were subjected to SDS-PAGE and proteins transferred onto a nitrocellulose membrane (Osmonics Inc.). The membrane was probed with primary antibodies followed by a secondary antibody conjugated with fluorescent dye and detected by the Odyssey detecting system ([…]).

Molecule	HRE-Luc luciferase activity in TRAMP-C cells [1]	binding result [2]
exogenous FoxA2 expressed in TRAMP-C cells (luciferase assay of FIG. 3A)	6 fold	–
B1	–	no binding
